Laboratory results reported in publication PMC10400533, “Exploring the G-quadruplex binding and unwinding activity of the bacterial FeS helicase DinG”.

Columns and labels:
DinG helicase [1] = target: T1, DinG helicase (Escherichia coli, UniProt P27296 1-716); assay: SPR; SPR single-cycle kinetics, 25 C, DinG immobilized, DNA 0.062-1 uM; DNA prepared in 10 mM potassium phosphate, 50 mM KCl, pH 7.5; SPR running buffer not in material; details: protein: recombinant, tags: His-tag
T1 sequence: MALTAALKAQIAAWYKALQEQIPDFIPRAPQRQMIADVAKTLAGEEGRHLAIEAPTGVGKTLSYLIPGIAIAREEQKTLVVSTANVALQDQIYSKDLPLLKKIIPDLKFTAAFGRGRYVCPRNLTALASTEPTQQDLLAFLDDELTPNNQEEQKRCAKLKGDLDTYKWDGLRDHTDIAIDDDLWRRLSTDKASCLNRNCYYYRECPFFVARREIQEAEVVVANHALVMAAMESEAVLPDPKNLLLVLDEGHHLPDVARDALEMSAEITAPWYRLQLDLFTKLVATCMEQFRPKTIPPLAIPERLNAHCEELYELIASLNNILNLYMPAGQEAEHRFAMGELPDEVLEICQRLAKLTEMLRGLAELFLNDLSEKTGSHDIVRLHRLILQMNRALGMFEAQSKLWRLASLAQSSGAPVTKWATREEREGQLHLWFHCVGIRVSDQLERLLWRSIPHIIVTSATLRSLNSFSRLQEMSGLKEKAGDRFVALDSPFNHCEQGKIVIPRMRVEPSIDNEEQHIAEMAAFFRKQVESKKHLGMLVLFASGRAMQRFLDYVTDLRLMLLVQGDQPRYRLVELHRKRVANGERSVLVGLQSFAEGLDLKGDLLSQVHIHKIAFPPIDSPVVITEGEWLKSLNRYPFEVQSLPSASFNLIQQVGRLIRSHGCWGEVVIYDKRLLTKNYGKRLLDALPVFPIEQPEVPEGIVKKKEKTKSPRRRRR

DinG helicase [2] = target: T1, DinG helicase; assay: SPR; Netropsin; SPR single-cycle kinetics, 25 C, DinG immobilized, DNA 0.062-1 uM; DNA prepared in 10 mM potassium phosphate, 50 mM KCl, pH 7.5; SPR running buffer not in material; details: protein: recombinant; tags: His-tag; parallel unimolecular G4

## GGTGGGGAGGGGTAAGGGG (structured_DNA) [EC-6]
DinG helicase [1]; G4
  Kd: 36.7 nM

## AGGGAGGGCGCTGGGAGGAGGG (structured_DNA) [c-KIT1]
DinG helicase [1]; parallel unimolecular G4
  Kd: 28.9 nM
DinG helicase [2]
  Kd: 31.5 nM

## AGGGCGGTGTGGGAATAGGGAA (structured_DNA) [KRAS]
DinG helicase [1]; parallel unimolecular G4
  Kd: 46.4 nM

## GGGGCGGGGTGGGTTGG (structured_DNA) [EC-9]
DinG helicase [1]; G4
  Kd: 34.9 nM

## GGGTGGGTGGGTGGGT (structured_DNA) [T30695]
DinG helicase [1]; dimeric parallel G4 of 2 strands
  Kd: 163 nM

## GGTGGGGGGGCGGGGGAGGCCGGG (structured_DNA) [Zic1]
DinG helicase [1]; parallel G4
  Kd: 22.8 nM

## GGGCGCGGGAGGAATTGGGCGGG (structured_DNA) [BCL2]
DinG helicase [1]; hybrid [3+1] unimolecular G4
  Kd: 21 nM

## GGGGGAGGAGGACGGGGG (structured_DNA) [EC-7]
DinG helicase [1]; G4
  Kd: 56.9 nM

## AGGGTGGGTAGGGTGGGT (structured_DNA) [c-MYC]
DinG helicase [1]; parallel unimolecular G4
  Kd: 30.6 nM

B1: DNA-fork (D1/D2) (dsDNA)
DNA 1: CTACTACCCCCACCCTCACAACCTTTTTTTTTTTTTT
DNA 2: TTTTTTTTTTTTTTGGTTGTGAGGGTGGGGGTAGTAG
DinG helicase [1]; fork 1:2, 23 bp duplex, 3' T14 tail on strand 1 and 5' T14 tail on strand 2
  Kd: 55.9 nM

## GTGTGTGTGTGTGTGTGTGTGTGTGTGTGT (ssDNA) [G-scramble]
DinG helicase [1]; no G4 or other secondary structure
  Kd: 126 nM

## TAGGGTTAGGGTTAGGGTTAGGG (structured_DNA) [Tel23]
DinG helicase [1]; hybrid [3+1] unimolecular G4
  Kd: 9.4 nM
